Laboratory results: patent publication US5580747A, “Non-radioactive enzyme assay” (Promega Corporation, priority 1994, dated 1996)
No end group written: not given here.

Key:
[1] = molecular target: cAMP-dependent protein kinase (Homo sapiens, UniProt P17612); assay: Radioactive kinase assay of peptide substrates (32P incorporation, P81 filter); assay type: biochemical
Method: Radioactive kinase assays were carried out as described in Walton et al., as modified and described here. Five μl Promega Peptide 1 (SEQ ID NO:1) were added to a reaction mixture containing 20mM Tris HCl (pH 7.4), 10 mM MgCl2, 4 micrograms (μg) of cAMP-dependent protein kinase (both catalytic and regulatory subunits), in the presence or absence of 2 micromolar (μM) cAMP, in a volume of 50 μl.
The reaction began with the addition of 10 μl of solution containing 0.15 mM [γ32 P] ATP (about 0.05 Ci/mmol) and 10 mM MgCl2. After a two minute incubation, the reaction was terminated by the addition of 30 μl of H3 PO4 to a final concentration of 0.5%. To measure incorporation of radiolabelled phosphate into the peptide substrate, half the reaction mixture was spotted onto a Whatmann P81 filter. The filters were washed four times in a solution containing 0.5% H3 PO4. Each wash lasted at least five minutes. After washing, the radioactivity present on the filters was measured in a scintillation counter.

protein kinase C = assay: Detection of small amounts of protein kinase C, agarose gel; assay type: biochemical; details: 30 minutes at room temperature, UV light
Method: Fifteen microliters of Promega Peptide 5 (SEQ ID NO:5) were incubated in protein kinase C reaction buffer (20 mM HEPES (pH 7.4), 1.3 mM CaCl2, 1 mM DTT, 10 mM MgCl2, 200 μg/mL phosphatidyl serine, 15 mM ATP), and 1 μg Protein Kinase C for 2 hours at room temperature in a final volume of 40 μl. The reaction was stopped by heating the reaction solution to 95° C. for ten minutes.
Five microliters of Promega Peptide 5 (SEQ ID NO:5) and 6 (SEQ ID NO:6) or 2.5 μl of Promega Peptide 4 (SEQ ID NO:4) were incubated with a solution containing 18 μl protein kinase C reaction buffer (described in Example 13) and decreasing amounts of protein kinase C, containing between 60 ng and 60 picograms (pg), for 30 minutes at room temperature. Reactions were stopped by heating the reaction mixtures to 95° C. for 10 minutes.
Referring to FIG. 11, the detection of phosphorylated peptide was observed under UV light, and detection limits noted. Six hundred picograms of protein kinase C could be detected by Promega Peptide 4 (SEQ ID NO:4), 3ng by Promega Protein 5 (SEQ ID NO:5), and 3 ng by Promega Protein 6 (SEQ ID NO:6).

[2] = tested on: Brevibacterium albidum culture supernate; assay: Assays of proteases in crude media samples; assay type: biochemical; details: 90 minutes at 37° C.
Method: (§1) Samples of culture supernate from stationary phase cultures of Thermus aquaticus (T. aquaticus) and Brevibacterium albidum (B. albidum) were made by centrifugation of a stationary phase culture at 12,000×g for 2 minutes and transfer of the supernate to fresh tubes. Diluted stocks of Promega Peptides 3 (SEQ ID NO:3), 5 (SEQ ID NO:5) and 6 (SEQ ID NO:6) were made by dilution of the original stocks of these peptides with an equal volume of 50 mM ammonium bicarbonate, pH 7.8. In three independent tubes per peptide, 10 μL of these diluted stocks were incubated with either 10 μL water, 10 μL Thermus supernate, or 10 μL Brevibacterium supernate. The incubations were performed for 90 minutes at 37° C. The samples were then loaded in a 0.9% agarose gel made with 20 mM Tris-Cl pH 8.0. The gel was then electrophoresed at 120 V for 30 minutes, and was photographed under UV light on a transilluminator as described above.
(§2) Reference is made to FIG. 15, which is a photograph of the agarose gel used to analyze the peptide species produced in the digestion of Promega Peptides 3 (SEQ ID NO:3), 5 (SEQ ID NO:5), and 6 (SEQ ID NO:6) by supernates of cultures of T. aquaticus and B, albidum. The gel was photographed under UV light as described in Example 1 and the gel is oriented such that the end of the gel which was oriented towards the negative electrode is towards the top of the photograph.

[3] = tested on: Thermus aquaticus culture supernate; assay: Assays of proteases in crude media samples; assay type: biochemical; details: 90 minutes at 37° C.
Method: as §1, §2

Modified Trypsin = molecular target: T1, Modified Trypsin (Sus scrofa, UniProt P00761); assay: Assay of pure proteases using modified peptides, agarose gel; assay type: biochemical; details: 90 minutes at 37° C., 0.1 to 0.001 μg protease
T1 construct: purchased Promega Corp., Madison, Wis
T1 sequence (P00761 9-231): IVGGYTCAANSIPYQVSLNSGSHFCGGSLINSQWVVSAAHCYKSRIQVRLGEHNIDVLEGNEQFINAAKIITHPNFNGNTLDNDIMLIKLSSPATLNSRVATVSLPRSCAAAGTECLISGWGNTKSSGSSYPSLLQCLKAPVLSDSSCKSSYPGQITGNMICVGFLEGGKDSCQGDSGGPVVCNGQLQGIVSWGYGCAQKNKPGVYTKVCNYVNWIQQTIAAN
Method: (§3) The proteases Modified Trypsin [sequencing grade] (Promega Corp., Madison, Wis.) and Endoprotease Lys C [sequencing grade] were dissolved in A buffer (50 mM ammonium bicarbonate, pH 7.8). These stocks were diluted with A buffer to produce stocks containing […] protease per 4 μl of liquid. Independent incubations of 4 μl of each of the different protease concentrations were performed with Promega Peptides 5 (SEQ ID NO:5), 6 (SEQ ID NO:6), 7 (SEQ ID NO:7) (5 μl of the stocks described above) in a 20 μl reaction mixture containing: 5 μl peptide; 4 μl protease; and 11 μl A buffer.
(§4) After 90 minutes at 37° C., the samples were loaded into a 0.8% agarose gel made in 20 mM Tris, pH 8.0. The samples were electrophoresed at 150 V. When the control peptide sample had migrated about 0.5 inch from the loading well, the gels were photographed on a transilluminator as described above.
(§5) Reference is made to FIG. 13, which is a photograph of the agarose gel used to analyze the peptide species produced in the digestion of Promega Peptide 6 (SEQ ID NO:6) by modified trypsin and Endoprotease Lys C. The gel was photographed under UV light as described in Example 1 and the gel is oriented such that the end of the gel which was oriented towards the negative electrode is towards the top of the photograph. The lanes are numbered from left to right. […]

alkaline phosphatase = details: peptide phosphorylated by protein kinase C; pH 9.2, 37° C. for 45 minutes
Method: Promega Peptide 6 (SEQ ID NO:6) was phosphorylated to provide a substrate for alkaline phosphatase in the following manner: 40 μl Promega Peptide 6 (SEQ ID NO:6) were incubated in a solution containing 20 mM HEPES (pH 7.4), 1.67 mM CaCl2, 1 mM dithiothreotol, 10 mM MgCl2, 100 μg/mL phosphatidylserine, 2 mM ATP, and 50 ng protein kinase C in a final volume of 100 μl at 37° C. for 1.5 hours. The reaction was stopped by incubating the mixture at 95° C. for 10 minutes.
After phosphorylation, 0.1M Tris (pH 9.5) was added to a final pH of 9.2. Fifteen microliters of this solution were mixed with between 0.08 to 200 pmoles of alkaline phosphatase in a final volume of 20 μl and incubated at 37° C. for 45 minutes. The reaction was stopped by freezing the mixtures in a dry ice/ethanol bath. Glycerol was added to a final concentration of 4%, and the samples were run on a 0.8% agarose gel at 75 V for 20 minutes.

Endoprotease Lys C = molecular target: T2, Endoprotease Lys C (Lysobacter enzymogenes, UniProt Q7M135); assay: Assay of pure proteases using modified peptides, agarose gel; assay type: biochemical; details: 90 minutes at 37° C., 0.1 to 0.001 μg protease
T2 construct: purchased Promega Corp., Madison, Wis
T2 sequence (Q7M135 whole entry): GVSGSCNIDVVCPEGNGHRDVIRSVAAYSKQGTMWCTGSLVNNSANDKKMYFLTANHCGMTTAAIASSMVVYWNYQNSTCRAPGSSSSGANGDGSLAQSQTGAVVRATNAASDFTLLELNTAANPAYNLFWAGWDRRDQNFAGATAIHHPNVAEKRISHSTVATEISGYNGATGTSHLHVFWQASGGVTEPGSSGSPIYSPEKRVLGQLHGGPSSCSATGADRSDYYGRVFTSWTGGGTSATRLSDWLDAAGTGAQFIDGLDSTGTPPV
Method: as §3, §4, §5

[4] = molecular target: catalytic subunit of cAMP-dependent protein kinase (Homo sapiens, UniProt P17612); assay: Quantitation of cAMP-dependent protein kinase activity using a spectrophotometer; assay type: biochemical; details: for A570: phosphorylated peptide band
Method: Three microliters of Promega Peptide 7 (SEQ ID NO:7) were phosphorylated by varying amounts of cAMP-dependent protein kinase. The reactions took place in a volume of 20 μl in a solution containing 3 mM ATP, 20 mM HEPES buffer (pH 7.4), and between 50 ng and 1 μg catalytic subunit of cAMP-dependent protein kinase. The mixture was incubated for 30 minutes at room temperature, and the reactions were stopped by heating the mixture at 95° C. for five minutes.
At this time, the phosphorylated and non-phosphorylated species had separated and could be detected by ultraviolet light. The phosphorylated peptide was then excised from the gel with a razor blade, and the agarose was melted by heating at 95° C. for 2 minutes. Two hundred microliters of the melted agarose were then diluted to 400 μl in a solution containing 2M urea and 1M acetic acid. The absorbance of the solution at 570 nm was then determined in a Milton-Roy Spectronic 1201 spectrophotometer.

[5] = molecular target: catalytic subunit of the cAMP-dependent protein kinase (Homo sapiens, UniProt P17612); assay: Quantitation of cAMP-dependent protein kinase activity using microtiter plate reader; assay type: biochemical; details: for A570: phosphorylated peptide band
Method: Eight microliters of Promega Peptide 7 (SEQ ID NO:7) was phosphorylated by the catalytic subunit of the cAMP-dependent protein kinase. The amount of kinase used in the assay varied from 4.5 μg to 0.9 ng, diluted from a stock solution of 2.25 mg/ml. The reactions took place in a volume of 24 μl for 30 minutes at room temperature, and were stopped by heating the solutions at 95° C. for five minutes.
After heating, glycerol was added to the solutions to a final concentration of 4%. The solutions were then loaded on a 0.8% agarose gel, which was run at 100 V until the phosphorylated and non-phosphorylated bands had separated and migrated from the wells.
The agarose containing the phosphorylated peptide was excised from the gel with a razor blade and placed into Eppendorph tubes. The agarose was melted, and 145 μl agarose solution were diluted in urea and acetic acid to a final concentration of 2M and 1M, respectively, in a final volume of 250 μl.
The solutions were placed in the wells of a microtiter plate and allowed to cool. After the agarose re-solidified, the absorbance of the wells at 570 nanometers (nm) was read.

[6] = 8 μl peptide, 30 minutes at room temperature

Substance: LRRASLG [Kemptide]
- CPM (+cAMP) ([1]; 2 μM cAMP, 4 μg cAMP-dependent protein kinase, [γ32P]ATP, two minute incubation): 471,840 CPM
- Stimulation ([1]; CPM +cAMP relative to no cAMP): 82
- CPM (no cAMP) ([1]; no cAMP, 4 μg cAMP-dependent protein kinase, [γ32P]ATP, two minute incubation): 5760 CPM

Substance: Promega Peptide 4: Lissamine Rhodamine-tagged peptide *-R-F-A-R-K-G-S-L-R-Q-K-N-V (SEQ ID NO:4) ({Lissamine Rhodamine}-RFARKGSLRQKNV)
- amount of protein kinase C that could be detected (protein kinase C): Six hundred

Substance: Promega Peptide 5: Lissamine Rhodamine-tagged peptide *-Q-R-R-Q-R-K-S-R-R-T-I (SEQ ID NO:5) ({Lissamine Rhodamine}-QRRQRKSRRTI)
- amount of protein kinase C that could be detected (protein kinase C): 3 ng
- proteolysis by B. albidum supernate [2]: proteolysis of the peptide had taken place
- proteolysis by T. aquaticus supernate [3]: proteolysis of the peptide had taken place

Substance: Promega Peptide 6: Lissamine Rhodamine-tagged peptide *-P-L-S-R-T-L-S-V-A-A-K-K (SEQ ID NO:6) ({Lissamine Rhodamine}-PLSRTLSVAAKK)
- digestion by Modified Trypsin (Modified Trypsin): fluorescent species with mobilities altered
- amount of alkaline phosphatase at which dephosphorylation of the phosphorylated peptide could be seen (alkaline phosphatase): 60 ng
- digestion by Endoprotease Lys C (Endoprotease Lys C): fluorescent species with mobilities altered
- amount of protein kinase C that could be detected (protein kinase C): 3 ng
- proteolysis by B. albidum supernate [2]: proteolytic cleavage of the peptide had occurred
- proteolysis by T. aquaticus supernate [3]: proteolytic cleavage of the peptide had occurred

Substance: Promega Peptide 7: Lissamine Rhodamine-tagged Kemptide *-L-R-R-A-S-L-G (SEQ ID NO:7) ({Lissamine Rhodamine}-LRRASLG)
- A570 -Blank ([4]; Kinase 0.05 μg (1:200)): 0.009
- A570 -Blank ([4]; Kinase 0.10 μg (1:100)): 0.021
- A570 -Blank ([4]; Kinase 0.20 μg (1:50)): 0.029
- A570 -Blank ([4]; Kinase 0.50 μg (1:20)): 0.130
- A570 -Blank ([4]; Kinase 1.0 μg (1:10)): 0.163
- A570 ([4]; Kinase 0.05 μg (1:200)): 0.024
- A570 ([4]; Kinase 0.10 μg (1:100)): 0.036
- A570 ([4]; Kinase 0.20 μg (1:50)): 0.044
- A570 ([4]; Kinase 0.50 μg (1:20)): 0.145
- A570 ([4]; Kinase 1.0 μg (1:10)): 0.178
- digestion by Endoprotease Lys C (Endoprotease Lys C): did not show any digestion
- kinase amount below which it could not be detected [5, 6]: 0.009 µg
- kinase amount that saturated the system [5, 6]: more than 0.9 μg
- A570 -Blank ([5]; Kinase 0.0009 μg (1:10,000)): 0.009
- A570 -Blank ([5]; Kinase 0.009 μg (1:1,000)): 0.010
- A570 -Blank ([5]; Kinase 0.09 μg (1:100)): 0.022
- A570 -Blank ([5]; Kinase 0.9 μg (1:10)): 0.107
- A570 -Blank ([5]; Kinase 4.5 μg (1:2)): 0.106
- A570 ([5]; Kinase 0.0009 μg (1:10,000)): 0.106 +/- 0.013
- A570 ([5]; Kinase 0.009 μg (1:1,000)): 0.107 +/- 0.003
- A570 ([5]; Kinase 0.09 μg (1:100)): 0.119 +/- 0.002
- A570 ([5]; Kinase 0.9 μg (1:10)): 0.204 +/- 0.003
- A570 ([5]; Kinase 4.5 μg (1:2)): 0.203 +/- 0.005
- correlation coefficient between kinase concentration and absorbance ([5]; range of 0.009 to 0.9 μg kinase added): 0.999

Substance: Sulforhodamine 101 Derivative of V^6 A^5 Kemptide ({sulforhodamine 101}-LRRASVA) [Promega Peptide 3]
- proteolysis by B. albidum supernate [2]: novel peptide species made in small amount
- proteolysis by T. aquaticus supernate [3]: proteolytic cleavage of the peptide had occurred
